According to patent US20140056907A1 (Regeneron, published 2014):

T1: human ASIC1 (human, UniProt P78348 1-528)
T1 sequence: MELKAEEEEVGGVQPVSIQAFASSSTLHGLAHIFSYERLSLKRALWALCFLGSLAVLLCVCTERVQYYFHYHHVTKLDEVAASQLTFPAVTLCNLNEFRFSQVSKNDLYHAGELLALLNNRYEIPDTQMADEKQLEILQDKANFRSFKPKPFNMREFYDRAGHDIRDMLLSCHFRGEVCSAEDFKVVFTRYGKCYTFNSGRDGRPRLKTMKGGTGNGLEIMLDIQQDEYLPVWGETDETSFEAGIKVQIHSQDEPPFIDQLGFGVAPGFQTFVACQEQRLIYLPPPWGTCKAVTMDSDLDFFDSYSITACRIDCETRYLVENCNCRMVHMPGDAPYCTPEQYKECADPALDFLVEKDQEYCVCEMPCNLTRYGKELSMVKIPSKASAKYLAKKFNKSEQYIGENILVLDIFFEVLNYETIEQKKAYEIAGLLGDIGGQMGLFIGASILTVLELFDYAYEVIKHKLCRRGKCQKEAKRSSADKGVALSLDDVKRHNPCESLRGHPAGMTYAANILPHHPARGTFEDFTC

T2: rat ASIC1 (rat, UniProt P55926 1-526)
T2 construct: whole, on cells; ND7 is a fusion line of mouse neuroblastoma and rat dorsal root ganglia; also called rat ASIC1a
T2 sequence (looked up): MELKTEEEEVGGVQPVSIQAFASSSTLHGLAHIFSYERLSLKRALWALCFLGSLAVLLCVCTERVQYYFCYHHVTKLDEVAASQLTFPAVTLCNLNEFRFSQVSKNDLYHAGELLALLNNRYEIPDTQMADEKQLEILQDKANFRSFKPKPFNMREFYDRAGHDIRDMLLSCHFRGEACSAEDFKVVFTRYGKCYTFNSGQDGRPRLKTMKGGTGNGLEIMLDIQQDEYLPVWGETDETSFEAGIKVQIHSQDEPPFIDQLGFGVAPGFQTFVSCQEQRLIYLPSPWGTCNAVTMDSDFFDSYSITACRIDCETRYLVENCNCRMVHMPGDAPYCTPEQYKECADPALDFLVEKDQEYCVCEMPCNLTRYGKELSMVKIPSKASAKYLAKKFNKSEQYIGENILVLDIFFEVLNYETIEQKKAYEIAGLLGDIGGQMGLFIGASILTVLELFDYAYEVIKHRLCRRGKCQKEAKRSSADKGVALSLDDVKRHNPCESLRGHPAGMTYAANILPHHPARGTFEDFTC

T3: mouse ASIC1a (mouse, UniProt Q6NXK8 1-526)
T3 sequence (looked up): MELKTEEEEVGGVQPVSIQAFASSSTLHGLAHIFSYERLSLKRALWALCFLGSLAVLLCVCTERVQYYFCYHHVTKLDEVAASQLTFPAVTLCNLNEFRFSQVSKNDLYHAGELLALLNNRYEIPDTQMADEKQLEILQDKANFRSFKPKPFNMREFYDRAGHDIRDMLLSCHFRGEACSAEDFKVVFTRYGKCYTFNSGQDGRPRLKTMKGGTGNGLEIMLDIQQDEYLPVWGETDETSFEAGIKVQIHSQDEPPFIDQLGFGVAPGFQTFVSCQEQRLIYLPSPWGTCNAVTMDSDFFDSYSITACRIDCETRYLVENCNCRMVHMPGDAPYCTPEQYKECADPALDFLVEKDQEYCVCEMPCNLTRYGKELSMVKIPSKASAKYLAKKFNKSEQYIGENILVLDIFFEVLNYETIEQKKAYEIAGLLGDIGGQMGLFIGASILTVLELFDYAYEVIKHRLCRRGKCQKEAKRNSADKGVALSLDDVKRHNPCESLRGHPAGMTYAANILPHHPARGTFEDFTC


Key:
human ASIC1 [1] = target: T1, human ASIC1; assay: cell-based or functional assay
human ASIC1 [2] = target: T1, human ASIC1; assay: FACS, 3T3/hASIC1 cells
Source text: To further characterize anti-ASIC1 antibodies, their ability to bind either (a) a mouse fibroblast 3T3 cell line stably transfected to overexpress full length human ASIC1 (3T3/hASIC1; amino acids 1-528 of NCBI accession number NP_{—}001086.2 [SEQ ID NO:401]), (b) a 3T3 cell line stably transfected to over express full length mouse ASIC1a (3T3/mASIC1a; amino acids 1-526 of NCBI accession number NP_{—}033727), or (c) a ND7 cell line (ECACC, #92090903) that is a fusion cell line of mouse neuroblastoma and rat dorsal root ganglia that endogenously expresses rat ASIC1, was determined using flow cytometry (FACS). ND7 cells were differentiated by replacing the culture media with low-serum media (0.5% FBS) containing 1 mM dibutyryl-cAMP (Cat. No. sc-201567A, Santa Cruz Biotechnology, Inc., Santa Cruz, Calif.). […]
(§1) To perform the FACS binding experiments, adherent cells were collected using 1 mM EDTA in PBS, then washed, and re-suspended in cold PBS containing 5% FBS. […] After incubating for 20 minutes on ice, the cells were washed and resuspended in PBS containing 5% FBS, then sorted and analyzed on a flow cytometer (FACSCalibur, BD Biosciences, San Jose, Calif.) to determine relative binding by the candidate antibodies to the tested cell lines. […] Percentage of ASIC1 signal over secondary antibody alone was calculated using FlowJo software (Tree Star, Ashland, Oreg.).

human ASIC1 [3] = target: T1, human ASIC1; assay: FACS titration, 3T3/hASIC1 cells
Method: To perform the FACS binding experiments, adherent cells were collected using 1 mM EDTA in PBS, then washed, and re-suspended in cold PBS containing 5% FBS. For each binding experiment, each anti-ASIC1 antibody ([…] or ND7 cells) was added to 250,000 cells in 500 μL of PBS with 5% FBS. After incubation for 20 minutes at room temperature, a secondary antibody which recognizes human Fc (Cat. No. 109-136-098, Jackson ImmunoResearch Laboratories, Inc., West Grove, Pa.) or mouse Fc (Cat. No. 550826, BD Biosciences, San Jose, Calif.) and is conjugated to allophycocyanin, was then added to the cell mixture at a final concentration of 13.3 nM. After incubating for 20 minutes on ice, the cells were washed and resuspended in PBS containing 5% FBS, then sorted and analyzed on a flow cytometer (FACSCalibur, BD Biosciences, San Jose, Calif.) to determine relative binding by the candidate antibodies to the tested cell lines. Histograms of cells stained with anti-ASIC1 antibodies were compared with those of cells stained with secondary antibody alone. Percentage of ASIC1 signal over secondary antibody alone was calculated using FlowJo software (Tree Star, Ashland, Oreg.).

rat ASIC1 = target: T2, rat ASIC1; assay: FACS, undifferentiated ND7 cells
Source text: (§2) To further characterize anti-ASIC1 antibodies, their ability to bind either (a) a mouse fibroblast 3T3 cell line stably transfected to overexpress full length human ASIC1 (3T3/hASIC1; amino acids 1-528 of NCBI accession number NP_{—}001086.2 [SEQ ID NO:401]), (b) a 3T3 cell line stably transfected to over express full length mouse ASIC1a (3T3/mASIC1a; amino acids 1-526 of NCBI accession number NP_{—}033727), or (c) a ND7 cell line (ECACC, #92090903) that is a fusion cell line of mouse neuroblastoma and rat dorsal root ganglia that endogenously expresses rat ASIC1, was determined using flow cytometry (FACS). ND7 cells were differentiated by replacing the culture media with low-serum media (0.5% FBS) containing 1 mM dibutyryl-cAMP (Cat. No. sc-201567A, Santa Cruz Biotechnology, Inc., Santa Cruz, Calif.). FACS binding was tested for some antibodies on both undifferentiated ND7 cells and differentiated ND7 cells.
as §1, with “PBS containing 5% FBS. For each binding experiment, each anti-ASIC1 antibody (at final concentrations of 10 nM of purified antibodies or 3.3 nM for antibody supernatants for binding to 3T3/hASIC1 cells and 5 nM for binding to 3T3/mASIC1a or ND7 cells) was added to 250,000 cells in 500 μL of PBS with 5% FBS.” for “PBS containing 5% FBS.”

mouse ASIC1a [4] = target: T3, mouse ASIC1a; assay: cell-based or functional assay
human ASIC1 [5] = target: T1, human ASIC1; assay: cell-based or functional assay; remark: listed apart in the source
mouse ASIC1a [6] = target: T3, mouse ASIC1a; assay: FACS, 3T3/mASIC1a cells
Source text: as §2
To perform the FACS binding experiments, adherent cells were collected using 1 mM EDTA in PBS, then washed, and re-suspended in cold PBS containing 5% FBS. For each binding experiment, each anti-ASIC1 antibody (at final concentrations of 10 nM of purified antibodies or 3.3 nM for antibody supernatants for binding to 3T3/hASIC1 cells and 5 nM for binding to 3T3/mASIC1a or ND7 cells) was added to 250,000 cells in 500 μL of PBS with 5% FBS. After incubation for 20 minutes at room temperature, a secondary antibody which recognizes human Fc (Cat. No. 109-136-098, Jackson ImmunoResearch Laboratories, Inc., West Grove, Pa.) or mouse Fc (Cat. No. 550826, BD Biosciences, San Jose, Calif.) and is conjugated to allophycocyanin, was then added to the cell mixture at a final concentration of 13.3 nM. After incubating for 20 minutes on ice, the cells were washed and resuspended in PBS containing 5% FBS, then sorted and analyzed on a flow cytometer (FACSCalibur, BD Biosciences, San Jose, Calif.) to determine relative binding by the candidate antibodies to the tested cell lines. Histograms of cells stained with anti-ASIC1 antibodies were compared with those of cells stained with secondary antibody alone. Percentage of ASIC1 signal over secondary antibody alone was calculated using FlowJo software (Tree Star, Ashland, Oreg.).

human ASIC1 [7] = target: T1, human ASIC1; assay: cell-based or functional assay; remark: listed apart in the source

| Binder | Current inhibition (%) at 100 nM antibody, Q-Patch, pH 6.0 (human ASIC1 [1]) [%] | binding result (human ASIC1 [2]) | EC50 (human ASIC1 [3]) [nM] | apparent IC50, mouse ASIC1 current, Q-Patch (mouse ASIC1a [4]) [nM] | apparent IC50, human ASIC1 current, Q-Patch (human ASIC1 [5]) [nM] | FLIPR Dose Curve, pH 5.0 % Block (human ASIC1 [7]) [%] | FLIPR Dose Curve, pH 5.5 % Block (human ASIC1 [7]) [%] | FLIPR Dose Curve, pH 5.5 IC50 (human ASIC1 [7]) [nM] | binding result (rat ASIC1) | binding result (mouse ASIC1a [6]) |
| --- | --- | --- | --- | --- | --- | --- | --- | --- | --- | --- |
| H2M7103N (antibody, V domains shown, Chimeric: human variable, mouse constant domains; Fc isotype not spelled out; also called H2bM7103N) VH: EVQLVESGGGLVQPGGSLKLSCAASGFTFSSFWMSWVRQAPGKGLEWVANIKQNGSETYYVDSVKGRFTISRDNTKNSLYLQMNSLRAEDTAIYYCARGGRIQLWSSWFDPWGQGTLVTVSS VL: DIQMTQSPSSLSASVGDRVTITCRASQSIKNYLNWYQQKSGKAPKLLIYAASSLQSGVPSRVSGSGSGTDFTLTISSLHPEDFAAYYCQQSFSAPLTFGGGTKVEIK | 92 | – | 1.7 | < 25 | ≤ 10 | – | – | – | no binding (tested: 5 nM; gated lower than 1%) | – |
| H3M7118N (antibody, V domains shown, Chimeric: human variable, mouse constant domains; H3M prefix marks the Fc, isotype not spelled out) VH: EVQLLESGGGLVQPGGSLRLSCAASGFTFRNYAMSWVRQAPGKGLEWVSAINGGGDSTYYADSVKGRFTISRDNSKNTLYLQMNSLRAEDTAVYYCAKEEGDWNYVGYGYYYYYGMDVWGQGTTVTVSS VL: DIQMTQSPSSMSASVGDRVTITCRASQGISSWLAWYQQKPGKAPKLLIYAASSLQSGVPSRFSGSGSGTDFTLTIRSLQPEDFATYYCQQANSFPYTFGQGTKLEIK | – | – | > 67 | < 25 | ≤ 10 | – | – | – | – | – |
| H3M6721N (antibody, V domains shown, Chimeric: human variable, mouse constant domains; H3M prefix marks the Fc, isotype not spelled out) VH: EVQLLASGGGLVQPGGSLRLSCAASGFTFSSFAMSWVRQAPGKGLEWVSGISGSGVSTYYADSVKGRFTISRDNSKNTLYLQMNSLRAEDTAAYYCAKEAYKWQPWGQGIRVTVSS VL: not shown | 100 | – | 0.085 | < 25 | ≤ 10 | 25 | 44 | 0.3 | no binding (tested: 5 nM; gated lower than 1%) | – |

Now from value to binder, other results behind:

| Current inhibition (%) at 100 nM antibody, Q-Patch, pH 6.0 (human ASIC1 [1]) [%] | binding result (human ASIC1 [2]) | EC50 (human ASIC1 [3]) [nM] | apparent IC50, mouse ASIC1 current, Q-Patch (mouse ASIC1a [4]) [nM] | apparent IC50, human ASIC1 current, Q-Patch (human ASIC1 [5]) [nM] | FLIPR Dose Curve, pH 5.0 % Block (human ASIC1 [7]) [%] | FLIPR Dose Curve, pH 5.5 % Block (human ASIC1 [7]) [%] | FLIPR Dose Curve, pH 5.5 IC50 (human ASIC1 [7]) [nM] | Binder | binding result (rat ASIC1) | binding result (mouse ASIC1a [6]) |
| --- | --- | --- | --- | --- | --- | --- | --- | --- | --- | --- |
| 29 | no binding | – | – | – | – | – | – | H4H6362P (antibody, V domains shown) VH: QVQLVESGGGVVQPGRSLRLSCEASGFTFGSYGMHWVRQAPGKGLEWMAVISYDGNSRYSADSVKGRFTISRDNSKNTLYLQMNSLRAEDTALYYCAKENHIAARRPGGLDVWGQGTTVTVSS VL: DIQMTQSPSSLSASVGDRVTITCRASQGISIYLAWYQQKPGKVPKLLIYAASSLQSGVPSRFSGSGSGTDFTLTISSLQPEDVATYFCQNYNIAPWTLGQGTKVEIK | – | – |
| 82 | – | 1.1 | < 25 | ≤ 10 | – | – | – | H3M6720N (antibody, V domains shown, Chimeric: human variable, mouse constant domains; H3M prefix marks the Fc, isotype not spelled out) VH: EVQLVESGGGLVQPGGSLKLSCAASGFTFSSFWMSWVRQAPGKGLEWVANIKQNGSETYYVDSVKGRFTISRDNTKNSLYLQMNSLRAEDTAIYYCARGGRIQLWSSWFDPWGQGTLVTVSS VL: AIQMTQSPSSLSASVGDRVTITCRASQGISNDLGWYQQKPGKAPKLLIYGASSLQTGVPSRFSGSGSGTDFTLTISSLQPEDFATYYCLQDFNYPYTFGQGTKLEIK | no binding (tested: 5 nM; gated lower than 1%) | no binding (tested: 5 nM; gated lower than 1%) |
| 25 | no binding | – | – | – | – | – | – | H4H6381P (antibody, human IgG4, V domains shown) VH: QVQLVQSGAEVKKPGASVKVSCKASGYTFTSYGISWVRQAPGQGLEWMGWISAYNGNTNYAQKLQGRVTMTTDTSTSTAYMELRSLRSDDTAVYYCARDGSYSWFDPWGQGTLVTVSS VL: not shown | – | – |
